What all share (test): native MS
For data set [1], the target named is AqpZ with C-terminal fusion to the green fluorescent protein (Escherichia coli) (UniProt P60844).
Data set [2] concerns the target AmtB from Escherichia coli (Escherichia coli) (UniProt P69681).
Data set [3] deals with the molecule itself.
Data set [4] deals with the molecule itself. The source holds these as a separate data set.

The term stoichiometry N denotes a count of units in the complex or per binding partner. As for “AqpZ with C-terminal fusion to the green fluorescent protein (from UniProt P60844 1-231) (natural protein)”, the stoichiometry N in data set [1] was found to be 4.

Regarding “AmtB from Escherichia coli (from UniProt P69681 23-428) (natural protein)”, the stoichiometry N in data set [2] was 3.

B1: TRAAK (K2p4.1b), residues 1-290 with N104Q and N108Q (domain or fragment)
chain: MTTAPQEPPARPLQAGSGAGPAPGRAMRSTTLLALLALVLLYLVSGALVFRALEQPHEQQAQRELGEVREKFLRAHPCVSDQELGLLIKEVADALGGGADPETQSTSQSSHSAWDLGSAFFFSGTIITTIGYGNVALRTDAGRLFCIFYALVGIPLFGILLAGVGDRLGSSLRHGIGHIEAIFLKWHVPPELVRVLSAMLFLLIGCLLFVLTPTFVFCYMEDWSKLEAIYFVIVTLTTVGFGDYVAGADPRQDSPAYQPLVWFWILLGLAYFASVLTTIGNWLRVVSRRT
B1: in data set [3], the “stoichiometry N” value turned out to be 2.

B2: TREK2, residues 55-335 with T58A (domain or fragment)
chain: MEGASQGGLQTVMKWKTVVAIFVVVVVYLVTGGLVFRALEQPFESSQKNTIALEKAEFLRDHVCVSPQELETLIQHALDADNAGVSPIGNSSNNSSHWDLGSAFFFAGTVITTIGYGNIAPSTEGGKIFCILYAIFGIPLFGFLLAGIGDQLGTIFGKSIARVEKVFRKKQVSQTKIRVISTILFILAGCIVFVTIPAVIFKYIEGWTALESIYFVVVTLTTVGFGDFVAGGNAGINYREWYKPLVWFWILVGLAYFAAVLSMIGDWLRVLSKKTKEEVGE
modifications: glycans, treated with EndoH to reduce the glycan heterogeneity
For B2, in data set [4], the binding result is “binds”.

For the origin of these results see PMC10718073 (Chemical Science, 2023).
